Laboratory results from the DeepSol protein solubility set.

Experiment: soluble on expression in E. coli; label from the status in PepcDB or PDB records

Sequence | soluble on expression in E. coli
MVDLGSDRLPVAVIGAGPVGLAAAAHLAERSVPFVVLEAGDAAATAVQAWSHIQLFSPWEFNTDPAARRLLAAAGWEEPDASALPTGGDLVKQYLQPLAELPALASHIRYGAEVTAISRLGIDRLRTADRDAAPFVLRLADGEEVLARAVIDASGTWRQPNHVGANGLPAHGEKDAAAWINHGLPDVFGADRDQHAGRHTVVVGAGHSAANTLLALAELADTAPGTTITWAIRGADPAASFGGGSDDELPARGAIGSGLKMLVETGRVTLAANFRTHAVRRLGDDPSRDQVELVSRALDGTERSVTADRVVAATGFRPDYRIVDELRLELDPIMSAPRALAPLIDPNQHSCGTVTPHGYRELAHPEPGYYAVGMKSYGRAPTFLMLTGYEQVRSIAAALAGDLEAAQSVELQLPETGVCSVTAGGEALALRLGLTKDQHEQLLHVTAKHLGTSATASDAVLSAATELGIDQTAALQLAAYAADMFDAPGAPGCLEHHHHHH | not soluble
MVDSRAFKLKEGREREVDMTSETEKRIIALEETIAHQAKTIEELSDQLAEQWKVVEQTRAKLDRLTERFLSLEEQSLDAPAITRPPHY | not soluble
MVDTHKLADDVLQLLDNRIEDNYRVCVILVGSPGSGKSTIAEELCQIINEKYHTFLSEHPNVIEVNDRLKPMVNLVDSLKTLQPNKVAEMIENQGLFKDHVEDVNFQPVKYSALTSNNEECTAVVARGGTANAIRIAAVDNPVNVNKLAQDSINIAQIVPMDGFHLSRRCLDLFKDPQTAHKRRGSPSTFDSNNFLQLCKILAKTSLCKVSSHHKFYSTSSVFEKLSKTFSQTIPDIFVPGFNHALKDPTPDQYCISKFTRIVILEGLYLLYDQENWKKIYKTLADTGALLVYKIDIDYEATEERVAKRHLQSGLVTTIAEGREKFRSNDLLNGRDIDNHLIKVDNIVHIRNDHHHHHH | soluble
MVEIDPFEMAVKQLERAAQYMDISEEALEWLKKPMRIVEVSVPIEMDDGSVKVFTGFRVQHNWARGPTKGGIRWHPAETLSTVKALATWMTWKVAVVDLPYGGGKGGIIVNPKELSEREQERLARAYIRAVYDVIGPWTDIPAPDVYTNPKIMGWMMDEYETIMRRKGPAFGVITGKPLSIGGSLGRGTATAQGAIFTIREAAKALGIDLKGKKIAVQGYGNAGYYTAKLAKEQLGMTVVAVSDSRGGIYNPDGLDPDEVLKWKREHGSVKDFPGATNITNEELLELEVDVLAPAAIEEVITEKNADNIKAKIVAEVANGPVTPEADDILREKGILQIPDFLCNAGGVTVSYFEWVQNINGYYWTEEEVREKLDKKMTKAFWEVYNTHKDKNIHMRDAAYVVAVSRVYQAMKDRGWVKK | soluble
MVEIIDTTFRDAHQSLIATRMSTKDMLPIAEKMDKIGFYSMEVWGGATFDVSLRFLREDPWERLKLLREHIRKTKLQMLLRGQNLVGYRHYPDDVVEKFVELAYKNGIDIFRVFDALNDVRNMKTAIKKAKEIGAEVQGAICYTTGPIFTIDYYLQKVDELIELDVDYITIKDMAGLADPQTAYELVKEIKERYGIKVNFHTHATSGLAVATYLKAVEAGVDYIDTSIYPLAGGTAQPAVQTMYYALPKGKRPKLNIKLIHEISKYLTNLLEKKYDHLLTKKAIHGDPNVLIHQIPGGMYSNLIKQLSELKALDKLEEVLEEVPRVREDLGYPPLVTPTSQIVGVQAVLNVLFGRYKQVTKETKDYVRGLYGRPPGKIKEEIKKLILGDEEPINVRPADLLEPMLEKAKKELKEKGYLEKEEDVVTYCLFPQVALEFFELRRQGRLRPVEEKPKGKPIKIYINGKEFEVFVEGIEFEPPKPKPQVQAIPSQPPKREVVAPSGSVVSAPMPGKVLRVLVRVGDRVRVGQGLLVLEAMKMENEIPSPRDGVVKRILVKEGEAVDTGQPLIELE | soluble
MVEKFDTIYDYYVDKGYEPSKKRDIIAVFRVTPAEGYTIEQAAGAVAAESSTGTWTTLYPWYEQERWADLSAKAYDFHDMGDGSWIVRIAYPFHAFEEANLPGLLASIAGNIFGMKRVKGLRLEDLYFPEKLIREFDGPAFGIEGVRKMLEIKDRPIYGVVPKPKVGYSPEEFEKLAYDLLSNGADYMKDDENLTSPWYNRFEERAEIMAKIIDKVENETGEKKTWFANITADLLEMEQRLEVLADLGLKHAMVDVVITGWGALRYIRDLAADYGLAIHGHRAMHAAFTRNPYHGISMFVLAKLYRLIGIDQLHVGTAGAGKLEGGKWDVIQNARILRESHYKPDENDVFHLEQKFYSIKAAFPTSSGGLHPGNIQPVIEALGTDIVLQLGGGTLGHPDGPAAGARAVRQAIDAIMQGIPLDEYAKTHKELARALEKWGHVTPV | soluble
MVENLKQLQERVAVSDGRAKADLVIKNGRIINVFSGEIMDGDIAIKNGYIAGIGSFPDAEKIIDAAGAFIAPGFIDAHVHVESAMVTPAEFARVLLPNGVTTIVTDPHEIANVAGEKGIEFMLEDAKGAPLDMFVMLPSSVPATEGEHNGETLHAEKLHPLYRHEKVIGLAEVMDFPSVAKGSDDILRKIIDAKKEGGRIDGHGAGLTSADLNNYLAVGIRTDHESTTAKEATDRLRAGMFVMLREGTVGRDLLQTIPAVSEKNSHRFCFCTDDKLINDLITEGSINYNIKLAIKNGIDPITAIQMATINAANCHNLPYLGAVAAGYQADIVFLTDIETVEISKVLKNGEVVVDNGVRNEAAFKQQAAVPFVSPPINHHVHLQDLALPLTKETCYVIGMQPNSLFTEKRIEQVTIQGGKFVPTVENDLLKMAVVERHHDTGCVGVGIVKGFGLTEGAIATTVAHDSHNIVAVGVSDEAMKAAIDHITQTGGGIAVVNGAGQVLHDLALPIAGLLSDKSYEEVENDLAGLLNAFKQISTANGFDPFLTLSFLTLPVIPELKLTDQGLFDFATFQIISNEVN | not soluble
MVERLTIIRGVEKFELQTKTARWVLAKEEGYSPVQMLVSAIGACGGYVYQSVLENSHIPFEFEKIEVTYSREVERRAQPLKQVTILFYVTVPEAFQERATRCLKLVSPNCPVIQSLAERITVEETVVFKK | not soluble
MVFKPHRINCRDFTFKIELKEKKILRGRAMLDKIDRKLLALLQQDCTLSLQALAEAVNLTTTPCWKRLKRLEDDGILIGKVALLDPEKIGLGLTAFVLIKTQHHSSEWYCRFVTVVTEMPEVLGVWRMAGEYDYLMRVQVADMKRYDEFYKRLVNSVPGLSDVTSSFAMEQIKYTTSLPIE | not soluble
MVGHSESSTDAVIEPTSEELLAEQVRVFNKMKGSTNFNRVAEDVYPVEVTKSKLVCEMVVQHQHLNSKGTLHGGQTATLTDVITARAVGVTVKDKGMASVELAVSYLLPVKVGDVLEITAHVLKVGRTMAFTDCEFRRKSDGKMSAKGKHTLAFLPNQPGISVENGTQFLEHHHHHHS | soluble
MVGQVIRKRGAYPEYTVEDVLAVIFLLKEPLGRKQISERLELGEGSVRTLLRKLSHLDIIRSKQRGHFLTLKGKEIRDKLLSMFSEPIGVSVDGYPGIAIVVKNPPEFKSIELRDEAIKFDAKGAMILTVKDNEIVFPEDFRPLKEMYPEVAKKIVDYEDGDAVIITWAETPAKALKSAIHVAYILKKEEITPEILEVVK | soluble
MVGTFLGTGASSGVPMLNCSCKVCTSSYSKNKRLRSSFFLESSSGIKLLIDTGPDIRQQLLREKIDRLDLVLYTHEHYDHIMGFDDIKFYTRCAPLNIYARDTAMAHIRNAFPYNFTSKPSLSGKADIIANVIRDFEPFFFKSLKIVPIPLIHGDIISLGYRVGNLAYLTDVKFIPEASYDYLKNLDLLIIDAMRIKPHPAHLNFSEAFCVIKKINPKISYFTHIAHDIMHEEFDYLEKDNIYLAYDGLKIYILEHHHHHH | not soluble
MVHYKLTYFNARGLAEISRQLFHMAGVEFEDERINEEKFSQLKPTFPSGQVPILCIDGAQFSQSTAIARYLARKFGFVGQTAEEELQADEVVDTFKDFIESFRKFVIAVLSGESEEILKNIREEVIKPAVKTYTAYLKAILEKSSSGYLVGNELTWADLVIADNLTTLINAELLDIENDKLLKEFREKIIETPKLKEWLAKRPETRF | not soluble
MVINQNEAHAIQRIDSDEEPTVSVVDVVATVATPHFDEPLKRKWRLKCAEYGTFMASLLDTDFAEHVTAHQVRCDGVRFKVKLRVEEAKGRSPRFEILAMSPEDSSGVQTLL | not soluble
MVIPALNEAPTVAKVVEAVLADNPLEVLVIDADSTDATAAEARSAGATVLNWREILDTEPIPGKGESLWRGVAAARGDIVVFVDADLTSFRPGMVNSLVAPFLNDDIHLVKADYVRTFGDHTTGGGRVTELTAKPLLRALFPELSHIRQPLGGEYAIRRSTALAMPFVSGYGVEVGLLIDVATQFGTSSIAQVDLGSRSHNHQSLEALGSMADVVATTILQRFGHDLPVVQREPLGIHLEHHHHHH | not soluble
MVKCMKPGKAVILLQGRYTGKKAVIVKSFDDGTVEKKYGHCLVAGLKKYPSKVIRKDSAKKTAKKSRVKCFFKVINYQHVMPTRYTLDLDLKNVVSADAISSKDKKVTALKEAKAKFEERFKTGKNRWFFTKLRF | not soluble
MVKFTTFLCIIALLLCSTLTHASARLNPTSVYPEENSFKKLEQGEVICEGVGEEECFLIRRTLVAHTDYIYTQNHNP | soluble
MVKIIENKLIDAEPLKDAVLIEGLPGIGHVGRVAAEHIVEEFNGEKVLELYCDDFPPQIVVKNDGTIEYMKNEFYLVKEPVPMVIVLGNTQALSPKGQYVLSEKIVDIAMKYGATKTYTLGGFGIGKISDELKVYVASTSKELSEQHKELGAEFRTDGGSIIGAAGLMLKFSKLKGIEGICLMGETPGYLVDPKSAGNVLEMLSKAIGFEIDMKKLDERAKEMEKFIEKVQMQEQGMQAPQHQDDLSYIG | not soluble
MVKKSEFERGDIVLVGFDPASGHEQQGAGRPALVLSVQAFNQLGMTLVAPITQGGNFARYAGFSVPLHCEEGDVHGVVLVNQVRMMDLHARLAKRIGLAADEVVEEALLRLQAVVE | soluble
MVKQVGNTEIKENHRASCHCGAVVLELYLPNGIEKPRRCDCSICRRKGAIVGSVPLANIKILKGESELKLYQFNTGTAKHYFCSNCGIYTHHQRRSDPTEYGYNIGCLEGVNPYELGAIEVMDGVNHPADRKKILEHHHHHH | not soluble
MVKSMIAVISDIHSNLEALNAVLNDIKNRGIKKIFCLGDIVGYGANPNECVELIRDLNCLSVVGNHDYGVLGKESLDYFNKYGAIAILWTKKVIKNENLKFLDSLPLIIEENIKGKKVIFSHANPKHPEIWEYLFPDYVDDVFNYGDLIFVGHSHIPFVNSEEGNLLLHEGKIYLDEDKKYLINPGSVGQPRDGINKASYCIFDEKDFKIEIVRVEYDIKKAYEKIVKNRLPEWLGERLFLGR | soluble
MVKVTYDIPTCEDYCALRINAGMSPKTREAAEKGLPNALFTVTLYDKDRLIGMGRVIGDGGTVFQIVDIAVSKSYQGQDYGSLIMEHIMKYIKNVSVESAYVSLIADYPADKLYAKFGFMPTEPDSGGMYIKY | soluble
MVLAALVLVLEGEGLPEPLGLRGFFYGLLREVAPEVHDQGENPFALGFGGREGAAWARVSLLVEGLYARLAPRLYALEGEEVRLGPPFRVRAVLQEGHPWAGVSTYPRLFQGPPSRDLALRFASPTFFRRKGVHYPVPEPRLVLESLLRRLEAFGPLKAPEGVREALLERTTVRSLEGRTLPARTEVDTAGFVGRVVYHLPRATEEEALWLSALGRFAFYSGVGAKTSLGYGRARAESA | soluble
MVLPALPAPPVCDSQNECVGWLGVAYSAVVDVIRAAAHEGVYIEPEARGRLDALREWIYYNYYTERAKRRDRRRRSVCHARTWFCFRKYDYVRRSIWHDTTTNTISVVSAHSVQ | soluble
